Measured values published in article PMC5537066, “Dimerization facilitates the conformational transitions for bacterial phosphotransferase enzyme I autophosphorylation in an allosteric manner” (FEBS Open Bio, 2017).

B1: Enzyme I (EI) with the active site H189A mutation, EI(1-575, H189A) (enzyme)
chain: not shown
notes: Enzyme I (EI) of the bacterial phosphotransferase system, E. coli, full length EI(1-575), with H189A; also called EIA; EI(H189A); source: E. coli BL21star (DE3), purified (DEAE or HisTrap, Superdex, monoQ)
B2: Enzyme I with the H189A and G356S mutations, EIA(G356S) (enzyme)
chain: not shown
notes: Enzyme I (EI) of the bacterial phosphotransferase system, E. coli, full length EI(1-575), with H189A and G356S; also called EI(G356S); source: E. coli BL21star (DE3), purified (DEAE or HisTrap, Superdex, monoQ)
B3: C-terminal domain of enzyme I, EIC(231-575) (domain or fragment)
chain: not shown
notes: C-terminal dimerization domain (EIC) of enzyme I, E. coli, residues 231-575, includes part of the connecting helix 231-260; source: E. coli BL21star (DE3), purified (DEAE or HisTrap, Superdex, monoQ)
B4: C-terminal domain of enzyme I with the G356S mutation, EIC(G356S) (domain or fragment)
chain: not shown
notes: C-terminal dimerization domain (EIC) of enzyme I, E. coli, residues 231-575, with G356S; also called EIC(G365S) (misprint in the text); source: E. coli BL21star (DE3), purified (DEAE or HisTrap, Superdex, monoQ)

Key:
[1] = biological target: the molecule itself; assay: SEC-MALS; 200 uM protein injected on a WTC-0303 column, buffer A with 10 mM PEP, 25 °C; dimer to monomers
[2] = biological target: the molecule itself; assay: SEC-MALS; 200 uM protein injected on a WTC-0303 column, buffer A (20 mM Tris/HCl pH 7.4, 100 mM NaCl, 2 mM β-mercaptoethanol, 4 mM MgCl2), 25 °C, without PEP; 50 uM elution concentration; KD (dimer to monomers) estimated from the dimer fraction, semiquantitative

Protein | percent dimer [1] [%] | Kd [2] [µM] | stoichiometry N [2] | stoichiometry N [1]
B1 | > 90 | ~0.4 | 2 | 
B2 | > 90 | ~30 |  | 2
B3 |  |  | 2 | 
B4 | ~80 | ≥ 5 | 2 | 
